# Source: paper doi:10.1101/2025.03.01.640964 (bioRxiv, 2025)
# Ends that are not written are not given here. * marks the point of attachment. Biotin = O=C1N[C@H]2[C@H](CS[C@H]2CCCCC(=O)*)N1
# Key:
# SteC_(210-429;K256H) = SteC_(210-429;K256H) (Salmonella Typhimurium strain 14028s, UniProt D0ZIB5 210-429, K256H); test: BLI; […] (1 ug/ml) […] (SA) biosensors; […]; Octet Red, 25 °C; 50 mM HEPES pH 7.5, 150 mM NaCl, 10 mM MgCl2, 0.5 mM TCEP, 0.05% Tween-20; […]; settings: both partners purified
# SteC_(210-429) WT = SteC_(210-429) WT (Salmonella Typhimurium strain 14028s, UniProt D0ZIB5 210-429); test: as above; settings: both partners purified
binder,measurement,setting,value
"Biotin-KGPPSSVPKSRHLTIKLTPAHSRK (peptide, UniProt O95466 190-213, looked up) [N-terminally biotinylated FMNL1 peptide]",Kd,SteC_(210-429;K256H),22 µM
same,Kd,SteC_(210-429) WT,7.9 µM
